Experimental data as given in the supplement of paper PMC9233669.
Fewer inactive variants are shown than the library holds.

Tests used:
biotinyl-Phe-oxazolone = experiment: self-aminoacylation, catalytic enhancement (BFO) (fold over background); higher = more active; k-Seq, kA / k0A0; sequences stand for … in GGGAAUGGAUCCACAUCUACGAAUUC…UUCACUGCAGACUUGACGAAGCUG
Outline: (§1)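 Mutagenized RNA pools with a 21-nt variable region (0.43 μM) reacted with each biotinyl-aminoacyl-oxazolone at 2–1250 μM. Reactions ran in 50 μL HEPES/NaCl/KCl/MgCl2/CaCl2 buffer with 5% acetonitrile, pH 6.9–7.0, for 90 minutes at room temperature. Streptavidin-captured RNA was quantified by triplicate qPCR and Illumina sequencing, and per-sequence fraction reacted was fit to a pseudo-first-order model with 1000 bootstraps. Catalytic enhancement is median kA divided by the uncatalyzed rate, the low-activity peak of a bimodal Gaussian fit.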

biotinyl-Ile-oxazolone = experiment: self-aminoacylation, catalytic enhancement (BIO) (fold over background); higher = more active; k-Seq, kA / k0A0; sequences stand for … in GGGAAUGGAUCCACAUCUACGAAUUC…UUCACUGCAGACUUGACGAAGCUG
Outline: as §1

biotinyl-Met-oxazolone = experiment: self-aminoacylation, catalytic enhancement (BMO) (fold over background); higher = more active; k-Seq, kA / k0A0; sequences stand for … in GGGAAUGGAUCCACAUCUACGAAUUC…UUCACUGCAGACUUGACGAAGCUG
Outline: as §1

biotinyl-Val-oxazolone = experiment: self-aminoacylation, catalytic enhancement (BVO) (fold over background); higher = more active; k-Seq, kA / k0A0; sequences stand for … in GGGAAUGGAUCCACAUCUACGAAUUC…UUCACUGCAGACUUGACGAAGCUG
Outline: as §1

biotinyl-Leu-oxazolone = experiment: self-aminoacylation, catalytic enhancement (BLO) (fold over background); higher = more active; k-Seq, kA / k0A0; sequences stand for … in GGGAAUGGAUCCACAUCUACGAAUUC…UUCACUGCAGACUUGACGAAGCUG
Outline: as §1

biotinyl-Trp-oxazolone = experiment: self-aminoacylation, catalytic enhancement (BWO) (fold over background); higher = more active; k-Seq, kA / k0A0; sequences stand for … in GGGAAUGGAUCCACAUCUACGAAUUC…UUCACUGCAGACUUGACGAAGCUG
Outline: as §1

| Sequence | self-aminoacylation (biotinyl-Phe-oxazolone) | self-aminoacylation (biotinyl-Ile-oxazolone) | self-aminoacylation (biotinyl-Met-oxazolone) | self-aminoacylation (biotinyl-Val-oxazolone) | self-aminoacylation (biotinyl-Leu-oxazolone) | self-aminoacylation (biotinyl-Trp-oxazolone) |
| --- | --- | --- | --- | --- | --- | --- |
| UAGUUCGCUAAUAGUCGCAAG [Fam3.1 aminoacylation ribozyme variant] | 6.84 | 1.81 | 1.55 | 1.86 | 1.81 | 1.88 |
| CUACUUCAACCAAUCGCUCUG [Fam1A.1 aminoacylation ribozyme variant] | 1.4 | 0.872 | 0.806 | 0.729 | 0.843 | 1.43 |
| GAGUUUGCUAAUACUCGCAAG [Fam3.1 aminoacylation ribozyme variant] | 1.09 | 1.03 | 0.939 | 1.07 | 1.01 | 1.12 |
| AUCACCCUGGUCAUGGAGUGA [Fam2.1 aminoacylation ribozyme variant] | 34 | 3.54 | 6.29 | 3.58 | 6.86 | 6.96 |
| AUUCCACUAGGUCAUCGGGUG [Fam2.2 aminoacylation ribozyme variant] | 77.2 | 6.56 | 9.49 | 6.23 | 14.2 | 8.98 |
| CCACACUUCGAACAAUCGGUC [Fam1B.1 aminoacylation ribozyme variant] | 1.11 | 0.833 | 0.98 | 0.957 | 0.862 | 0.84 |
| AUUCACCUAGGUCAUCGAGUA [Fam2.2 aminoacylation ribozyme variant] | 31.7 | 7.22 | 9.81 | 5.92 | 13.1 | 3.9 |
| CUACUUCAAACGAUCGGUCAG [Fam1A.1 aminoacylation ribozyme variant] | 0.808 | 0.621 | 0.36 | 0.535 | 0.566 | 0.625 |
| CUUACCCUGGCCAUCGAGUGA [Fam2.1 aminoacylation ribozyme variant] | 9.12 | 2.78 | 2.99 | 2.65 | 4.34 | 3.51 |
| CCCCACUUCAAGCAAUCAGUC [Fam1B.1 aminoacylation ribozyme variant] | 19.8 | 0.981 | 0.987 | 1.14 | 1.13 | 6.51 |
| CGACACUGCAAGCAAUCGGUC [Fam1B.1 aminoacylation ribozyme variant] | 1.4 | 1.52 | 1.26 | 1.47 | 1.37 | 1.82 |
| AUAACCCUGGUCAUCGAGUUA [Fam2.1 aminoacylation ribozyme variant] | 4.86 | 1.7 | 2.5 | 1.34 | 2.86 | 1.12 |
| AUUCACCCAGGUCAUCGGGAG [Fam2.2 aminoacylation ribozyme variant] | 0.732 | 1.22 | 1.28 | 1.48 | 1.28 | 1.47 |
| UUUCACCAAGGUCAUCGGGUG [Fam2.2 aminoacylation ribozyme variant] | 58.3 | 5.54 | 9.41 | 6.02 | 10.3 | 10.2 |
| AUUCCGCUAGGUCAUCGGGUG [Fam2.2 aminoacylation ribozyme variant] | 128 | 8.43 | 14 | 8.93 | 17.7 | 13.6 |
| AUUCACCUAAAUCAUCGGGUG [Fam2.2 aminoacylation ribozyme variant] | 34.6 | 3.11 | 5.3 | 2.56 | 6.91 | 5.55 |
| AUUCACCUAGGUCAUGGGGAG [Fam2.2 aminoacylation ribozyme variant] | 0.544 | 1.03 | 0.889 | 0.979 | 0.853 | 1.56 |
| CUAUUUCUAACAAUCGGUCUG [Fam1A.1 aminoacylation ribozyme variant] | 0.973 | 0.913 | 0.818 | 0.787 | 0.824 | 0.668 |
| AUUCACCCGGGUCAUCGGGUG [Fam2.2 aminoacylation ribozyme variant] | 42.6 | 4.1 | 5.16 | 4.44 | 6.18 | 6.14 |
| AUUCACCUAGGUCUUCCGGUG [Fam2.2 aminoacylation ribozyme variant] | 99.3 | 7.6 | 11.2 | 7 | 17.2 | 12.2 |
| CCACACUUCAAGCAAACGCUC [Fam1B.1 aminoacylation ribozyme variant] | 0.677 | 0.956 | 1.41 | 0.912 | 1.01 | 1.37 |
| GUUCACAUAGGUCAUCGGGUG [Fam2.2 aminoacylation ribozyme variant] | 51.1 | 4.89 | 6.87 | 4.64 | 8.18 | 8.49 |
| AUUACCCCGGUCAUCGAGUAA [Fam2.1 aminoacylation ribozyme variant] | 5.28 | 1.53 | 1.2 | 1.26 | 1.9 | 2.01 |
| UAGUUUGCUAAUGGUCGCAAG [Fam3.1 aminoacylation ribozyme variant] | 1.19 | 1.11 | 1.17 | 1.1 | 0.81 | 1.22 |
| AUACACCUAGGUCAUCCGGUG [Fam2.2 aminoacylation ribozyme variant] | 30.6 | 3.5 | 3.91 | 3.14 | 6.81 | 5.38 |
| CCACACUUCAAGCAAUCUCUC [Fam1B.1 aminoacylation ribozyme variant] | 0.826 | 0.61 | 0.514 | 0.669 | 0.385 | 0.383 |

| Sequence | self-aminoacylation (biotinyl-Phe-oxazolone) | self-aminoacylation (biotinyl-Ile-oxazolone) | self-aminoacylation (biotinyl-Met-oxazolone) | self-aminoacylation (biotinyl-Val-oxazolone) | self-aminoacylation (biotinyl-Leu-oxazolone) | self-aminoacylation (biotinyl-Trp-oxazolone) |
| --- | --- | --- | --- | --- | --- | --- |
| AUUAGCCUGGUUAUCGAGUGA [Fam2.1 aminoacylation ribozyme variant] | 74.4 | 5.67 | 11.3 | 5.37 | 12.2 | 13.7 |
| AUUCACCAAGGUCAUCAGGUG [Fam2.2 aminoacylation ribozyme variant] | 3.44 | 1.6 | 2.1 | 1.37 | 2.25 | 1.79 |
| CAGUUUGCGAAUAGUCGCAAG [Fam3.1 aminoacylation ribozyme variant] | 5.57 | 1.79 | 1.93 | 1.59 | 2.67 | 2 |
| AUUAACCUGGUCAUCAAGUGA [Fam2.1 aminoacylation ribozyme variant] | 4.41 | 1.76 | 3.1 | 1.85 | 2.94 | 3.18 |
| CUACUUCAAGCAAUCGGACUG [Fam1A.1 aminoacylation ribozyme variant] | 4.71 | 0.86 | 0.714 | 0.861 | 1.04 | 2.58 |
| AAGUUUGCUAAUAGUCGUACG [Fam3.1 aminoacylation ribozyme variant] | 1.11 | 0.65 | 0.547 | 0.565 | 0.524 | 0.579 |
| AUUCACCUAGGUCAACGGGUG [Fam2.2 aminoacylation ribozyme variant] | 27.5 | 2.5 | 4.01 | 2.48 | 5.19 | 3.49 |
| AAGUUUGCUAAUAGUAGCAUG [Fam3.1 aminoacylation ribozyme variant] | 1.67 | 1.04 | 0.815 | 0.851 | 0.991 | 1.03 |
| AUGCACCUAGGUCAUCUGGUG [Fam2.2 aminoacylation ribozyme variant] | 10.8 | 1.67 | 1.95 | 1.69 | 2.34 | 2.17 |
| CUAUUUCACACAAUCGGUCUG [Fam1A.1 aminoacylation ribozyme variant] | 0.675 | 0.88 | 0.848 | 0.774 | 0.766 | 0.617 |
| AUUCACCUAGGUCAUCGGAUU [Fam2.2 aminoacylation ribozyme variant] | 0.438 | 0.872 | 0.853 | 0.864 | 0.837 | 1.19 |
| GUUCACCUAGGUCAUCGGGGG [Fam2.2 aminoacylation ribozyme variant] | 6.24 | 2.93 | 4.28 | 3.43 | 5.9 | 4.61 |
| AUUCAUCUAGGUCAUCGGUUG [Fam2.2 aminoacylation ribozyme variant] | 1.07 | 1.15 | 1.25 | 1.24 | 1.3 | 1.13 |
| AUUACCCUGGUCAUCGUUUGA [Fam2.1 aminoacylation ribozyme variant] | 0.693 | 0.923 | 0.71 | 0.821 | 0.963 | 0.734 |
| CUUCUUCAAACAAUCGGACUG [Fam1A.1 aminoacylation ribozyme variant] | 7.56 | 0.822 | 0.652 | 0.677 | 0.698 | 3.43 |
| CCACACUUCAAGCAAUCGGAG [Fam1B.1 aminoacylation ribozyme variant] | 0.817 | 0.874 | 0.743 | 1.16 | 0.591 | 1.03 |
| CUACUUCAGACAACCGGUCUG [Fam1A.1 aminoacylation ribozyme variant] | 0.886 | 0.968 | 1.22 | 1.28 | 1.03 | 0.969 |
| AUUCACCUUGGUCAUCGGCUG [Fam2.2 aminoacylation ribozyme variant] | 7.58 | 1.64 | 1.52 | 2.19 | 1.7 | 1.66 |
| CCACACUUCAAGCAAUCGUAC [Fam1B.1 aminoacylation ribozyme variant] | 1.29 | 0.473 | 0.351 | 0.669 | 0.58 | 0.546 |
| CUAGUUGAAACAAUCGGUCUG [Fam1A.1 aminoacylation ribozyme variant] | 0.861 | 0.923 | 0.974 | 0.828 | 0.841 | 0.834 |
| AGUACCCUGGUAAUCGAGUGA [Fam2.1 aminoacylation ribozyme variant] | 47.6 | 3.21 | 7.78 | 3.23 | 8.28 | 8.92 |
| AUUACCCUGGUCUUCGAGUGU [Fam2.1 aminoacylation ribozyme variant] | 1.76 | 1.52 | 1.96 | 1.57 | 2.03 | 2.23 |
| CUACUUCAUACGAUCGGUCUG [Fam1A.1 aminoacylation ribozyme variant] | 0.597 | 0.61 | 0.624 | 0.852 | 0.526 | 0.824 |
| CUACUUCAAACACUCGGUCUU [Fam1A.1 aminoacylation ribozyme variant] | 1.56 | 1.71 | 1.81 | 1.74 | 1.49 | 1.18 |
| CUAACCCUGGUCAUCGAGUGA [Fam2.1 aminoacylation ribozyme variant] | 11.8 | 4.07 | 8.98 | 4.44 | 8.32 | 9.47 |
